Results reported in US20240384250A1, “FIBROBLAST GROWTH FACTOR 23 MODULATING COMPOUNDS” (THE UAB RESEARCH FOUNDATION, priority 2021, published 2024).

T1: FGF23 binding to FGFR4 (Homo sapiens, UniProt P22455+Q9GZV9)
T1 construct: Fc-coupled FGFR ectodomains were immobilized on protein A/G beads; purchased R&D Systems 2604FG025/CF or 2629FG025/CF; 685FR050
T1 sequence (Q9GZV9 25-251): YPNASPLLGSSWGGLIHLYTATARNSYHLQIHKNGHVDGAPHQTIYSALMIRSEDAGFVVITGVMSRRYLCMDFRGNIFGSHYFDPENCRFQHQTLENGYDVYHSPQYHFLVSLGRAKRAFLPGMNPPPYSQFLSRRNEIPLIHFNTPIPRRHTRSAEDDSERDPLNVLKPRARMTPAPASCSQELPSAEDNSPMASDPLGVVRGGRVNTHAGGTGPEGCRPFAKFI
T1 sequence (P22455 22-369 limits assumed): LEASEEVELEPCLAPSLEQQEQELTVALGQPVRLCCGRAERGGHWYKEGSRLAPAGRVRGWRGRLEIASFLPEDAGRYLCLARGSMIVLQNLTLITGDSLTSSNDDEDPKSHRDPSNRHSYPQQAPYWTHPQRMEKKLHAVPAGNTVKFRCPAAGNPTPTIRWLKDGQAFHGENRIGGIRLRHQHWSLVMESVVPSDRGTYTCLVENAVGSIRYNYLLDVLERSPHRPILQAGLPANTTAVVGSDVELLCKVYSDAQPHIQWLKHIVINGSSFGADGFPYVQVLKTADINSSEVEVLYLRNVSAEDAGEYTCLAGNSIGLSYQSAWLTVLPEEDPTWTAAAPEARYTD

T2: FGFR4 (Homo sapiens, UniProt P22455)
T2 construct: Fc-FGFR4 protein (human ectodomain) was immobilized; purchased R&D Systems 685FR050
T2 sequence (P22455 22-369 limits assumed): T1 sequence (P22455 22-369 limits assumed)

B1: sKL: recombinant soluble α-klotho ectodomain, mouse aa 35-982 and human aa 34-981, FLAG- or Strep/His-tagged, purified from HEK293 cells (protein)
chain: EPGDGAQTWARFSRPPAPEAAGLFQGTFPDGFLWAVGSAAYQTEGGWQQHGKGASIWDTFTHHPLAPPGDSRNASLPLGAPSPLQPATGDVASDSYNNVFRDTEALRELGVTHYRFSISWARVLPNGSAGVPNREGLRYYRRLLERLRELGVQPVVTLYHWDLPQRLQDAYGGWANRALADHFRDYAELCFRHFGGQVKYWITIDNPYVVAWHGYATGRLAPGIRGSPRLGYLVAHNLLLAHAKVWHLYNTSFRPTQGGQVSIALSSHWINPRRMTDHSIKECQKSLDFVLGWFAKPVFIDGDYPESMKNNLSSILPDFTESEKKFIKGTADFFALCFGPTLSFQLLDPHMKFRQLESPNLRQLLSWIDLEFNHPQIFIVENGWFVSGTTKRDDAKYMYYLKKFIMETLKAIKLDGVDVIGYTAWSLMDGFEWHRGYSIRRGLFYVDFLSQDKMLLPKSSALFYQKLIEKNGFPPLPENQPLEGTFPCDFAWGVVDNYIQVDTTLSQFTDLNVYLWDVHHSKRLIKVDGVVTKKRKSYCVDFAAIQPQIALLQEMHVTHFRFSLDWALILPLGNQSQVNHTILQYYRCMASELVRVNITPVVALWQPMAPNQGLPRLLARQGAWENPYTALAFAEYARLCFQELGHHVKLWITMNEPYTRNMTYSAGHNLLKAHALAWHVYNEKFRHAQNGKISIALQADWIEPACPFSQKDKEVAERVLEFDIGWLAEPIFGSGDYPWVMRDWLNQRNNFLLPYFTEDEKKLIQGTFDFLALSHYTTILVDSEKEDPIKYNDYLEVQEMTDITWLNSPSQVAVVPWGLRKVLNWLKFKYGDLPMYIISNGIDDGLHAEDDQLRVYYMQNYINEALKAHILDGINLCGYFAYSFNDRTAPRFGLYRYAADQFEPKASMKHYRKIIDSNGFPGPETLERFCPEEFTVCTECSFFHTRKS
modifications: left off: small tags and cut ends
notes: recombinant soluble α-klotho ectodomain, mouse aa 35-982 and human aa 34-981, FLAG- or Strep/His-tagged, purified from HEK293 cells
B2: FGF23: recombinant fibroblast growth factor 23 protein from R&D Systems (protein)
chain: YPDTSPLLGSNWGSLTHLYTATARTSYHLQIHRDGHVDGTPHQTIYSALMITSEDAGSVVITGAMTRRFLCMDLHGNIFGSLHFSPENCKFRQWTLENGYDVYLSQKHHYLVSLGRAKRIFQPGTNPPPFSQFLARRNEVPLLHFYTVRPRRHTRSAEDPPERDPLNVLKPRPRATPVPVSCSRELPSAEEGGPAASDPLGVLRRGRGDARGGAGGADRCRPFPRFV

Legend:
FGF23 binding to FGFR4 = target: T1, FGF23 binding to FGFR4; assay: Pull-down of FGF23 with Fc-FGFR on protein A/G beads with sKL, heparin or PBS; settings: with heparin, or alone
Experimental: To study the interaction between Fc-tagged FGFR isoforms (Fc-FGFR), FGF isoforms, and sKL, immunoprecipitation studies were conducted. Protein A beads (6501, BioVision) and protein G beads (6511, BioVision) were used at 25 μl of a 50% stock slurry per sample in a total bead volume of 50 μl. Beads were washed 5× in activity buffer (50 mM Tris [pH 7.4], 200 mM NaCl, 0.01% Tween 20). Bead spin-down assays were all performed for 2 minutes at 5000 g. Beads were resuspended in 1 ml of activity buffer in a 1.5-ml snap cap tube. One microgram of Fc-FGFR1 to 4 was incubated with the beads for 1 hour on a bead rotator. Control samples were incubated with 2 μg of anti-FGF antibody instead of Fc-FGFR. Beads were then pelleted at 5000 g for 2 minutes and washed 5× with activity buffer. Beads were resuspended and incubated with different combinations of 500 ng of FGF, 1 μg of sKL, 1.6 United States Pharmacopeia (USP) units of heparin, or phosphate-buffered saline (PBS). Beads were incubated for 1 hour on a tube rotator, and beads were pelleted and washed as before. One hundred microliters of 1× Laemmli sample buffer (1610737, Bio-Rad) with 1.42 M 2-mercaptoethanol was added, and samples were boiled for 5 minutes. Samples were analyzed using SDS-PAGE and Western blotting.
The sample (20 μl) was loaded onto Mini-PROTEAN TGX Precast Gel 4-20% for experiments with <9 samples (4568094, Bio-Rad) or Criterion TGX Precast Gel 4-20% (5678094, Bio-Rad) for experiments with >9 samples. Gels were run in 1× Tris/Glycine/SDS buffer (1610732, Bio-Rad) at 150 V and stopped when the sample dye reached the end of the gel. Gels were removed and electrotransferred via a semi-dry cassette (1703940, Bio-Rad) in I× Tris/Glycine buffer (1610734, Bio-Rad) with 20% methanol. Gels were transferred onto polyvinylidene diflouride membranes (IPVH00010, Millipore) at 20 V for 1 hour. Membranes were then blocked in 5% dried milk with 0.5% Tween 20 diluted in Tris-buffered saline (TBST; pH 7.5) for 1 hour and probed with antibodies against specific antigens at 1:1000 in TBST with 5% dried milk. Blots were washed 3× for 5 minutes in TBST and probed with HRP-coupled secondary antibodies against specific species at 1:10,000 in TBST with 5% dried milk. Membranes were imaged on the SRX-101A X-ray film developer (Konica Minolta).

FGFR4 = target: T2, FGFR4; assay: Surface plasmon resonance, FGFR4 ectodomain immobilized on chip; type: binding; settings: SPR
Experimental: For the direct quantitative analysis of label-free molecular interactions in real time, surface plasmon resonance studies were conducted using BIAcore T200 and T200 evaluation software (28975001, Cytiva). Sensor SA (BR100398) and CMS chips (BR100399) were from Cytiva. For the preparation of heparin chips, heparin (2 mg) and amine-PEG3-Biotin (2 mg, 21347, Pierce) were dissolved in 200 μl of H2O and 10 mg of NaCNBH3 was added. The reaction mixture was heated at 70° C. for 24 hours; an additional 10 mg of NaCNBH3 was added; and the reaction was heated at 70° C. for another 24 hours. After cooling to room temperature, the mixture was desalted with the spin column (3000 MWCO). Biotinylated heparin was collected, freeze dried, and used for chip preparation. Biotinylated heparin was immobilized to streptavidin chips according to the manufacturer's protocol. In brief, 20 μl of biotinylated heparin solution (0.1 mg/ml) in HBS-P running buffer (0.01 M N-2-hydroxyethylpiperazine-N′-2-ethanesulfonic acid, 0.15 M NaCl, 0.005% surfactant P20 [pH7.4]; BR100368, Cytiva) was injected over flow cell 2 of the streptavidin chip at a flow rate of 10 μl/min. The successful immobilization of heparin was confirmed by the observation of an approximately 200-resonance unit increase in the sensor chip. The control flow cell (flow cell 1) was prepared by 1-minute injection with saturated biotin. For the preparation of FGFR4 chips, Fc-FGFR4 protein (human ectodomain) was immobilized on research grade CMS chips according to the standard amine coupling protocol. Briefly, carboxymethyl groups on the CMS chip surface were first activated using an injection pulse of […] of an equimolar mix of N-ethyl-N-(dimethylaminopropyl) carbodiimide and N-hydroxysuccinimide (final concentration 0.05 M, mixed immediately before injection). After activation, FGFR4 was diluted to […] in 100 mM sodium acetate (pH 5.5) buffer and injected over the activated biosensor surface. […] The response was monitored as a function of time (sensorgram) at 25° C.

Row | Molecule | FGF23 co-precipitation with Fc-FGFR4 (FGF23 binding to FGFR4) | Kd (FGFR4) [nM] | ka (FGFR4; 25° C.) | kd (FGFR4; 25° C.)
1 | B1 | could coprecipitate sKL and FGF23 | – | – | –
2 | B2 | no FGF23 binding was detected | 320 | 1.2 × 10^3 1/MS | 0.04 1/S
